This is an account of results in patent US20230374127A1 (LG CHEM, published 2023).

For the experiment, the target named is T1, human LILRB1 protein (LILRB1-His, RnD systems Cat. No. 8989-T2) (human, UniProt Q8NHL6 24-458, limits assumed).
T1 construct: Bought protein; also called LILRB1 antigen; the antigen, LILRB1; not shown: His tag
The experiment in a line: SPR, Biacore T200; antibody captured by anti-human IgG (Fc), LILRB1-His injected 25-400 nM. The method, then: The binding affinities of the 19 antibodies, which were selected in Example 3, to the antigen, LILRB1, were measured using Biacore T200 (GE healthcare). An anti-human IgG (Fc) antibody (GE healthcare, Cat. No. BR-1008-39, final concentration of 25 μg/mL) was flowed at the flow rate of 5 μL/min for 360 seconds to be immobilized at 5000-7000 RU on Series S Sensor Chip CM5 (GE healthcare, Cat. No. BR-1005-30) using Amine Coupling Kit (GE healthcare, Cat. No. BR-1000-50).
A general note: Surface plasmon resonance follows binding to a sensor surface in real time, without labels.

T1 sequence (Q8NHL6 24-458 limits assumed): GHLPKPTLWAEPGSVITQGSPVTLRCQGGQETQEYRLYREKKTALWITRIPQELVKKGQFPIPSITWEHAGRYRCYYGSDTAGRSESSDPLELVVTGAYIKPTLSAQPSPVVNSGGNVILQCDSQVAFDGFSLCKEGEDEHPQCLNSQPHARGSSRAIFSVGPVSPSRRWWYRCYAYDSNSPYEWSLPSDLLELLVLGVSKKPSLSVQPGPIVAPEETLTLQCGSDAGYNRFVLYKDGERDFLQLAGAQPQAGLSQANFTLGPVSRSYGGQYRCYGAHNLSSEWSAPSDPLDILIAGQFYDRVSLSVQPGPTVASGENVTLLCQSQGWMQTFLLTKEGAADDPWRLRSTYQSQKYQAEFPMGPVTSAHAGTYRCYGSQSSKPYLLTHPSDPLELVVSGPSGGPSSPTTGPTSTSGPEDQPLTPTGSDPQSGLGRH

B1: anti-LILRB1 antibody No. 10 (antibody, human IgG4 S228P, kappa, F234A L235A, V domains shown)
VH: QVQLVQSGAEVKKPGSSVKVSCKASGGTFSSHYMHWVRQAPGQGLEWMGWISPYLGSTNYAQKFQGRVTITADESTSTAYMELSSLRSEDTAVYYCARDETGSTYGAFDYWGQGTLVTVSS
VL: DIQMTQSPSSLSASVGDRVTITCRASQSISNYLNWYQQKPGKAPKLLIYAASNLQSGVPSRFSGSGSGTDFTLTISSLQPEDFATYYCQQSYSFPFTFGQGTKVEIKR
notes: Human IgG4 / kappa, expressed in ExpiCHO-S cells; also called clone 10
A word on the Kd: it is the equilibrium constant for the complex coming apart. The term koff denotes a measure of how fast the partners let go of each other. The term kon denotes the rate constant with which the complex forms. A high value points to faster complex formation. B1: binding was put at a Kd of 24.1 nM, the koff came to 0.000298 s⁻¹ and the kon came to 12300 M⁻¹ s⁻¹.
